The values below come from patent US20250326867A1, “De novo designed chlorophyll special pair proteins” (University of Washington, priority 2024, published 2025).

Positions count from the first letter of the chain named.

This series deals with the molecule itself. Kind of series: size-exclusion chromatography, self-association (homodimer). How it is done:
FIG. 7. Size exclusion chromatography (SEC) traces of purified SP apo-proteins. Proteins were injected as 0.5 mL aliquots onto a Superdex™ 200 Increase 10/300 GL column (Cytiva Life Sciences). The narrow, isolated peaks indicate that the samples contain monodisperse protein. Running buffer was 150 mM NaCl, 10 mM Tris at pH 8. Proteins were purified by Ni-NTA and one round of SEC prior to collecting the data shown.
Proteins were purified by Ni-NTA and size-exclusion chromatography (SEC) (FIG. 7). […] A slightly lower predicted radius of gyration (Rg) value compared to experimental SAXS data is likely due to a dense hydration shell around the highly charged SP proteins (Svergun et al. 1998; Kim et al. 2016). The far ultraviolet (UV) circular dichroism (CD) spectra of three SP proteins that expressed in high yield (≥140 mg/L) show the proteins are highly α-helical with and without the synthetic Chl a derivative, Zn pheophorbide a methyl ester (ZnPPaM). Thermal denaturation curves monitored by the CD signal at 222 nm indicate that all three proteins are highly thermostable in the apo- and holo-states (FIG. 2).
(In general: Size exclusion chromatography separates by hydrodynamic size, large species first.)

B1: tj79C2-H65A (designed binder)
chain: SGSGSREDELLARYLILLAELAAEEADIAAERTGDPRVRELARELKRLAQEAAEEVKRDPSSSDVNHALHLIVLAILIAVEALEAAERTGDPEVRELARELVRLAVEAAEEVQRNPSSSDVLKALILILLAIIQAVKALEAAERTGDPEVRELARELVRLAVEAAEEVQRNPSSKEVTMALLLILIAILEAVLSLLRAERSGDPEKREKARERVREAVERAEEVQRDPSGW
notes: Designed homodimer subunit, after TEV cleavage
Consider B1, for which the binding result was “binds”.

B2: tj79C2-H65B (designed binder)
chain: B1 chain with L11F, E25R, H67L, I78A, I126M, L129V, I133L, K137Q, T178Y
notes: as for B1
On to B2, for which the binding result is “binds”.

B3: tj79C2-H125A (designed binder)
chain: SGSGSREDELWARYTLLLAELAAERADIAAERTGDPRVRELARELKRLAQEAAEEVKRDPSSSDVYLALILIVMAIYMAVLALEAAERTGDPEVRELARELVRLAVEAAEEVQRNPSSSDVNKALLLIVHAIMAAVAALEAAERTGDPEVRELARELVRLAVEAAEEVQRNPSSKEVDMALLLIQIAILEAVLSLLRAERSGDPEKREKARERVREAVERAEEVQRDPSGW
notes: as for B1
With B3, the binding result is given as “binds”.

B4: tj79C2-H65C (designed binder)
chain: SGSGSREDELIARYLILLAELAAERADIAAERTGDPRVRELARELKRLAQEAAEEVKRDPSSSDVFMALHLIVLAIQIAVKALEAAERTGDPEVRELARELVRLAVEAAEEVQRNPSSSDVFLALLLIVTAIMLAVEALEAAERTGDPEVRELARELVRLAVEAAEEVQRNPSSKEVLMALLLILIAILEAVLSLLRAERSGDPEKREKARERVREAVERAEEVQRDPSGW
notes: as for B1
As to B4, the binding result is “binds”.

B5: tj79C2-H132A (designed binder)
chain: SGSGSREDELRARLLILLAELAAETLDIIAERTGDPRVRELARELIRLLQEAAEEVKRDPSSSDVNEALKLIVEAIFMAIFILLFAEQTGDPEVRELARELVRLAVEAAEEVQRNPSSSDVNEALKLIIQAIILAVHALLAAEKTGDPEVRELARELVRLAVEAAEEVQRNPSSKEVDMALLLILIAILEAVLSLLRAQRSGDPEKREKARERVREAVERAEEVQRDPSGW
notes: as for B1
Consider B5, for which the binding result is “binds”.

B6: D_3_114_2 (designed binder)
chain: SGSGSSDEEFKWLATWAKMAITAAERAAGTDPELQEMVALIKKELEQAERTFRNGDKSEAWRQLVFVAIAAAAVLAVALAANAAGTDPELQEMVDRILKQLKEAIRTFQNGDQEEAETQLFFVLLAAAAVAVVALALIWAGTDPELQEMVKQILEELKQAIETFARGDKEKALTQLLFVLWAAHAVLWIAIAANTAGTDPRLQQQVKEILEKLKEAIETFQKGDEEQAFRQLAEVLAEAVLVALRAMKTN
notes: as for B1
For the protein B6, the binding result is recorded as “binds”.

B7: tj79C2-H121B (designed binder)
chain: SGSGSREDELLARLLLLLAELAAERADIAAERTGDPRVRELARELKRLAQEAAEEVKRDPSSSDVLMALLLIIMAIEAAVEALEAAERTGDPEVRELARELVRLAVEAAEEVQRNPSSSDVWWALHLILFAIQLAVRALEAAERTGDPEVRELARELVRLAVEAAEEVQRNPSSKEVDMALLLILIAILEAVLSLLRAERSGDPEKREKARERVREAVERAEEVQRDPSGW
notes: as for B1
Consider B7, for which the binding result is on record as “binds”.

B8: tj79C2-H121C (designed binder)
chain: B7 chain with L16I, A68L, I73V, M74L, E77Q, W122F, W123M, R137Q, V168L, D178Q
notes: as for B1
As for B8, the binding result is “binds”.

B9: SP3x (designed binder)
chain: SGSSEELARESAEAAWRLAQASTRATLAMIRGDLKELAEALIELARAVQELARVAKEYGNDELAKTAALLAAHVAMLAIWVLIRAIKEGDDEVRELAKTAIKLASTAAKIVLDALPTAEEVRQITLLAKLAEEAADKKNEDSALAVGIAAIAVIIALWALEAAQKAGIEEAEKGARLLLKLAMDAARKKNPEEALAVLNAALDVSIALQLLQSAKRAGSEETRKLAEEMLRQALERARKKN
notes: as for B1
On to B9, for which the binding result is given as “binds”.

B10: tj79C2-H65D (designed binder)
chain: SGSGSREDELQARLLILLIELAAERADIAAERTGDPRVRELARELKRLAQEAAEEVKRDPSSSDVWLALHLIVIAILIAVEALEAAERTGDPEVRELARELVRLAVEAAEEVQRNPSSSDVLKALMLILIAILLLLEALEAAERTGDPEVRELARELVRLAVEAAEEVQRNPSSKEVQMALLLILIAILEAILSLLRAERSGDPEKREKARERVREAVERAEEVQRDPSGW
notes: as for B1
Consider B10, for which the binding result was “binds”.

B11: tj79C2-H65E (designed binder)
chain: B10 chain with Q11W, W66L, K123I
notes: as for B1
Turning to B11, the binding result is reported as “binds”.

B12: D13_H60A (designed binder)
chain: SGSGSEEKEWMLLTAMLIMAIKTLKEMLEEDPNDEEIKKILELLWQISKTQQDDPHNEEQKEWLHLLLIIIMALRLVQEMLKEDPNDEEIEKILELLKQILRTLREDPHNEEQKEWLILLFIIIALLDSVQEMLKEDPNDEEIEKILELLKQILRTLREDPHNEEQKQWLIQLINALILLLFIQEKLKEDPNDEEAEEELERLKEQLRRLRE
notes: as for B1
With B12, the binding result is given as “binds”.

B13: D13_H60B (designed binder)
chain: B12 chain with M11Q, A15W, M16L, A20I, L68A, I69A, M72L, E115A, I118L, F121V
notes: as for B1
With B13, the binding result is “binds”.

B14: D13_H11A (designed binder)
chain: SGSGSEEKEWQAMTLHLIFAIKILKEMLEEDPNDEEIKKILELLWQISKTQQDDPHNEEQKEWLMLLLLIIMALRLVQEMLKEDPNDEEIEKILELLKQILRTLREDPHNEEQKEWLILLLIIILLLDSVQEMLKEDPNDEEIEKILELLKQILRTLREDPHNEEQKQWLIQLINALILLLFIQEKLKEDPNDEEAEEELERLKEQLRRLRE
notes: as for B1
For B14, the binding result is “binds”.

B15: D13_H11B (designed binder)
chain: B14 chain with L15A, F19Y, M65I, L69I, M72L, I118S, L121F, L125A
notes: as for B1
On to B15, for which the binding result is “binds”.

B16: D13_H11C (designed binder)
chain: B14 chain with Q11A, A12I, L15A, F19Y, I23V, L69G, M72L, I118A, L121V
notes: as for B1
On to B16, for which the binding result is given as “binds”.

B17: tj79C2-H69A (designed binder)
chain: SGSGSREDELQARLQLLAAELAAEEADIAAERTGDPRVRELARELKRLAQEAAEEVKRDPSSSDVNAALVLITHAIMLAVEALKAAERTGDPEVRELARELVRLAVEAAEEVQRNPSSSDVNKALFLIMMAIITAVTALEAAERTGDPEVRELARELVRLAVEAAEEVQRNPSSKEVDMALLLILIAILEAVLSLLRAERSGDPEKREKARERVREAVERAEEVQRDPSGW
notes: as for B1
Take B17: the binding result was “binds”.

B18: tj79C2-H121A (designed binder)
chain: SGSGSREDELIARYQILLAELAAERADIAAERTGDPRVRELARELKRLAQEAAEEVKRDPSSSDVNMALLLILLMIELAVRALEAAERTGDPEVRELARELVRLAVEAAEEVQRNPSSSDVWQALHLIMLAIWAAVAALEAAERTGDPEVRELARELVRLAVEAAEEVQRNPSSKEVYMALLLILIAILEAVLSLLRAERSGDPEKREKARERVREAVERAEEVQRDPSGW
notes: as for B1
Consider B18, for which the binding result was “binds”.

B19: SP3 (designed binder)
chain: SGSSEELARESAEAAWRLAQAGTRLMLAWIRGDLKEIAEALIELARAVQELARVAKEYGNDELAKTAALLAAHVAMLAILVLIRAIKEGDDEVRELAKTAIKLASTAAKIVLDALPTAEEVRQITLLAKLAEEAADKKNEDSALAVGIAAAAVLLALLALEAAQKAGIEEAEKGARLLLKLAMDAARKKNPEEALAVFNAALDVSIALKLLQSAKRAGSEETRKLAEEMLRQALERARK
notes: as for B1
On to B19, for which the binding result was “binds”.

B20: JId (designed binder)
chain: B19 chain with G22A, M26V, W29V, L69F, M76L, L80I, F198L, K209R
notes: as for B1
With B20, the binding result is recorded as “binds”.

B21: JIe (designed binder)
chain: B19 chain with G22A, L25I, W29V, L69F, M76L, L80I, A151M, L155I, K209R
notes: as for B1
With B21, the binding result is listed as “binds”.

B22: JIa (designed binder)
chain: B19 chain with L25A, M26A, W29A, I37L, M76L, L155A, F198L, K209R
notes: as for B1
For B22, the binding result is “binds”.

B23: JIc (designed binder)
chain: B19 chain with G22A, M26V, W29L, I37V, L69W, L80Y, A151I, L155I, F198L, K209R
notes: as for B1
Regarding B23, the binding result is listed as “binds”.

B24: tj79C2-H69B (designed binder)
chain: SGSGSREDELHARYLILSAELAAERADIAAERTGDPRVRELARELKRLAQEAAEEVKRDPSSSDVNKALLLITHAILIAVAALEAAERTGDPEVRELARELVRLAVEAAEEVQRNPSSSDVNRALFLIMMAIMMAVKALEAAERTGDPEVRELARELVRLAVEAAEEVQRNPSSKEVDMALLLILIAILEAVLSLLRAERSGDPEKREKARERVREAVERAEEVQRDPSGW
notes: as for B1
Consider B24, for which the binding result is listed as “binds”.
